Here are results for one substance from patent US20180111996A1.

Broadly, the Kd is the free concentration of one partner at which half of the binding sites on the other are occupied at equilibrium, for simple one-to-one binding. The koff is the rate constant with which the complex falls apart. The term kon denotes the second-order rate constant of association. A low value points to slower complex formation. The term EC50 denotes the concentration giving half of the maximal effect. The IC50 is the concentration that inhibits the measured activity by half. Higher therefore signals weaker potency in that assay.

Test [1] addresses hPD-1/Fc (R & D Systems) (human) (UniProt Q15116). Put plainly: bio-light interferometry (ForteBio Octet), PD-1/Fc on biosensor. (In BLI a coated tip is dipped into the sample, and binding shifts an interference pattern.)
For test [2] the target is unchanged. Put plainly: protein ELISA, hPD-1/Fc immobilized.
Test [3] concerns the target human PD-1 (hPD-1) receptor expressed on cells (human) (UniProt Q15116). Put plainly: FACS, blockade of hPD-L1/Fc binding to CHO cells expressing human PD-1.
The target is the same in test [4]. Described as above. The source holds these as a separate data set.
Test [5] shares this target. Put plainly: FMAT, blockade of labeled hPD-L2/Fc binding to CHO-hPD-1 cells.
For test [6] the target is unchanged. As to the kind of experiment: CELISA on CHO-hPD-1 cells.
Test [7] has the same target. Put plainly: FMAT, blockade of labeled hPD-L1/Fc binding to CHO-hPD-1 cells.

hPD-1/Fc (R & D Systems) (human), sequence (Q15116 25-167 limits assumed): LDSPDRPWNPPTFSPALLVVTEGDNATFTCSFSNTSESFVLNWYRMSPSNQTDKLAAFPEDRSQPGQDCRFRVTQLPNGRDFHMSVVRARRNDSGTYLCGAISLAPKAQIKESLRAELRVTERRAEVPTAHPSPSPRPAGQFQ
human PD-1 (hPD-1) receptor expressed on cells (human), sequence (Q15116 25-288): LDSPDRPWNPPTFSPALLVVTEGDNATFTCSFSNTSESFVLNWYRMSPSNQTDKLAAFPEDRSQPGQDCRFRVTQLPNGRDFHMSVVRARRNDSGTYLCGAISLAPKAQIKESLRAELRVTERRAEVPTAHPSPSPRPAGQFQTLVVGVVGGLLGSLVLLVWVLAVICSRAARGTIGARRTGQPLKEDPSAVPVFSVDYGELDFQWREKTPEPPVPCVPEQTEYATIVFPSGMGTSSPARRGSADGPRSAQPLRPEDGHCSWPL

For “Anti-PD-1 antibody clone J116 (eBioscience #14-9989)”, the Kd in test [1] turned out to be 1.82 nM. In addition, the koff in test [1] turned out to be 0.00015 s⁻¹. The substance also yielded a kon in test [1] of 82400 M⁻¹ s⁻¹. Further, the EC50 in test [2] is 0.41 nM; in test [6] it was 0.349 nM. For the same substance, the IC50 in test [3] is greater than 100 nM; in test [4] it was 0.106 nM; in test [5] it was 0.044 nM; in test [7] it was greater than 0.1 nM.
